# In the supplement of paper PMC7877785:
# ± gives the uncertainty stated by the source.
# Assay: self-splicing fitness, log relative to wild type (ln ratio); higher = more splicing; Tetrahymena group I intron in knt gene, E. coli kanamycin selection, DiMSum; sequences stand for … in CUCUCU…GGAGGGAAAAGUUAUCAGGCAUGCACCUGGUAGCUAGUCUUUAAACCAAUAGAUUGCAUCGGUUUAAAAGGCAAGACCGUCAAAUUGCGGGAAAGGGGUCAACAGCCGUUCAGUACCAAGUCUCAGGGGAAACUUUGAGAUGGCCUUGCAAAGGGUAUGGUAAUAAGCUGACGGACAUGGUCCUAACCACGCAGCCAAGUCCUAAGUCAACAGAUCUUCUGUUGAUAUGGAUGCAGUUCACAGACUAAAUGUCGGUCGGGGAAGAUGUAUUCUUCUCAUAAGAUAUAGUCGGACCUCUCCUUAAUGGGAGCUAGCGGAUGAAGUGAUGCAACACUGGAGCCGCUGGGAACUAAUUUGUAUGCGAAAGUAUAUUGAUUAGUUUUGGAGUACUCGUGGUCG
# How it was run: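 The eight P1ex-region nucleotides of an intron in the knt kanamycin-resistance gene on pET-22b(+) were all randomised and the library put into E. coli BL21(DE3). Six replicate transformations were grown overnight at 37°C or 30°C on LB agar with or without 25 μg/mL kanamycin, together with 100 μg/mL carbenicillin, 50 μM IPTG and 0.2% rhamnose. Colonies were pooled and amplicon-sequenced on an Illumina HiSeq 2500. Fitness from DiMSum is the error-weighted combination of wild-type-normalised replicate fold changes, kanamycin over none.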
Sequence,self-splicing fitness (ln) (30 °C),self-splicing fitness (ln) (37 °C)
GCUGAGCAAUAUUACGGUUA,-1.74 ± 0.14,-0.208 ± 0.1
GCUGAGCAAUAUUACGUAUA,-3.69 ± 0.26,-2.22 ± 0.29
GCUGAGCAAUAUUACGUCAC,-2.4 ± 0.37,-1.66 ± 0.36
GCUGAGCAAUAUUACGUGUU,-3.4 ± 0.2,-2.37 ± 0.21
GCUGAGCAAUAUUACGUUCC,-1.48 ± 0.2,-1.84 ± 0.35
GCUUAGCAAUAUUACGAAUA,-2.05 ± 0.25,-0.645 ± 0.18
GCUUAGCAAUAUUACGAAUG,-1.79 ± 0.1,-1.33 ± 0.13
GCUUAGCAAUAUUACGAGAU,-1.36 ± 0.14,-1.02 ± 0.12
GCUUAGCAAUAUUACGAUCC,-0.0566 ± 0.1,0.226 ± 0.13
GCUUAGCAAUAUUACGCACC,-0.796 ± 0.13,0.115 ± 0.16
GCUUAGCAAUAUUACGCUGU,-2.25 ± 0.18,-1.25 ± 0.18
GCUUAGCAAUAUUACGGAUG,-1.71 ± 0.14,-1.05 ± 0.13
GCUUAGCAAUAUUACGGAUU,-1.15 ± 0.1,-0.911 ± 0.11
GCUUAGCAAUAUUACGGCGU,-0.354 ± 0.1,-0.748 ± 0.11
GCUUAGCAAUAUUACGGGCG,-1.44 ± 0.082,-0.621 ± 0.098
GCUUAGCAAUAUUACGGUUG,-3.95 ± 0.18,-1.91 ± 0.12
GCUUAGCAAUAUUACGUACC,-0.204 ± 0.2,1.1 ± 0.21
GCUUAGCAAUAUUACGUAUC,-1.32 ± 0.083,0.415 ± 0.093
GCUUAGCAAUAUUACGUCAG,-2.36 ± 0.22,–
GCUUAGCAAUAUUACGUGAG,-1.45 ± 0.07,-1.2 ± 0.071
GCUUAGCAAUAUUACGUGCG,-1.23 ± 0.09,-0.6 ± 0.12
GCUUAGCAAUAUUACGUGGG,-1.53 ± 0.093,-1.72 ± 0.1
GCUUAGCAAUAUUACGUGGU,-2.81 ± 0.15,-1.93 ± 0.16
GCUUAGCAAUAUUACGUUCA,-1.01 ± 0.15,-1.21 ± 0.17

Sequence,self-splicing fitness (ln) (30 °C),self-splicing fitness (ln) (37 °C)
GCUUAGCAAUAUUACGUUGC,-2.46 ± 0.15,-0.535 ± 0.12
GGAAAGCAAUAUUACGAAUA,-2.36 ± 0.22,-1.19 ± 0.19
GGAAAGCAAUAUUACGAAUG,-3.53 ± 0.29,-0.816 ± 0.25
GGAAAGCAAUAUUACGACAC,-0.204 ± 0.15,-0.206 ± 0.2
GGAAAGCAAUAUUACGAUAA,-1.32 ± 0.14,-0.198 ± 0.16
GGAAAGCAAUAUUACGAUUG,-3.56 ± 0.28,-1.82 ± 0.23
GGAAAGCAAUAUUACGCACC,-1.43 ± 0.21,–
GGAAAGCAAUAUUACGCACG,-1.16 ± 0.19,0.0479 ± 0.17
GGAAAGCAAUAUUACGCACU,-1.35 ± 0.22,-1.57 ± 0.3
GGAAAGCAAUAUUACGCAGC,-2.07 ± 0.22,-1.53 ± 0.23
GGAAAGCAAUAUUACGCGCA,-0.291 ± 0.16,-0.139 ± 0.17
GGAAAGCAAUAUUACGGAGG,-3.5 ± 0.24,-2.31 ± 0.21
GGAAAGCAAUAUUACGGGGA,-2.87 ± 0.15,-2.9 ± 0.26
GGAAAGCAAUAUUACGGGGC,-3.54 ± 0.28,-0.864 ± 0.21
GGAAAGCAAUAUUACGGGUA,-1.86 ± 0.17,-1.32 ± 0.15
GGAAAGCAAUAUUACGGUGA,-1.01 ± 0.15,-0.6 ± 0.16
GGAAAGCAAUAUUACGGUGG,-1.84 ± 0.16,-1.53 ± 0.16
GGAAAGCAAUAUUACGUAGC,-2.63 ± 0.22,-2.34 ± 0.23
GGAAAGCAAUAUUACGUCGU,-0.732 ± 0.093,-0.254 ± 0.12
GGAAAGCAAUAUUACGUUUC,-3.04 ± 0.21,-2.5 ± 0.28
GGAAAGCAAUAUUACGUUUU,-3.05 ± 0.14,-2.18 ± 0.18
GGACAGCAAUAUUACGACGC,-0.126 ± 0.065,0.658 ± 0.11
GGACAGCAAUAUUACGACGU,-0.177 ± 0.06,0.587 ± 0.075
GGACAGCAAUAUUACGAGUC,-4.31 ± 0.2,-2.75 ± 0.15
